Results: the DeepSol protein solubility set

Test: soluble on expression in E. coli; label from the status in PepcDB or PDB records

Row | Sequence | soluble on expression in E. coli
1 | MPNQNFNAQLAEAISALNTPNFTPKLMSVIHSIFDFDCAIILGYREGKHPIYLYDSIENERELLFQRYLTNSFQNDPFFQNLNQHKQQGIFTLKDVAKKGIEYQTYRKQFYDQTGWKDELSMLVEIESGRWVILYFGCLREGKRFSAAQINNLRSHFSVLQSLCQQHWKQAEFNLSEPVVRPDAYTGNMKVAIEQALSSFGIE | not soluble
2 | MGSDKIHHHHHHMKILPVISTKGGEGKSTQAANLAGFFADAGLKTLLIDGDYSQPTASSIYALEHEAPFGLFELLMQTTDLNQPESIISRTAIPNLDLIISNDPDDRLPTAMLHAPDGRMRLKNILQHQSFQSYDVIMIDSKGAAGVMVELVVLAATENVVGVIKPILPDVREFMRGTVRLMSRLLALQAYGIQIPDIKILANCVENTSLDRKTLEELGNIVSEKKYLQSESINISILETKIDQLEVYKRGHAFGQPVHRLEYVTDRKSAAAAVTMHSLACELFPHWKDKFDSVLRNQTGAGEVASV | not soluble
3 | MGSDKIHHHHHHMMPAKWDEVRPLLDRFSRDLPTNATVWFMMPDGSYYATAKGGFTDQNLKDCTCFPKLIGGKEVLGELVISRSTGQRSIVVAAPVVADGKVVAAVGVSVDAVKLIEVVESRMTLPENAYIYALDAKTKVTLHRYQARTFKTVFEIGNESLGDTFKKVMHREQGVFNYSLEGKKMNSIFRKSPVHGWYFFIAQQCK | not soluble
4 | MGSDKIHHHHHHVKRRLNPLEAYLVVMSNADRAGGLVLAATPKMKQEHHIKTGSRMYELPTWDKRIIIAPPRMKLYLKVNAMIQAIFRRYVPAEFIHVYSIDECFLDITGSHLLFGSTEEIVRKIQRDILEELRLYVTVGIGDNPLLAKLALDNVAKNRDDGIAEWRYEDVPETIWKIRHLDDVCGIGRRTAIRLQKMGIFNMYQLSQTPPQVLKNAMGVVGEQLYYHAHGIDYSLLNEKYVPVSKSYGKSQILEKDYHIPAEVEIVIREMVEEVAMRLRQNHVDTEVIHLSIGYSKYSIKKGFSHQAKIPSTSSSHALIPYFLQLFRRYDEREPVRSIAISCGKLTLKTGLQLNLFEDATRTLNHEQLEVTVDKIRTRYGFKSLMHASSLLNGATGLKRSEMVGGHKG | not soluble
5 | MGSDKIHHHHHHMKFVIRDLNTKKVMKNAYRITKTKYETSLRVRVPGGLIDPESLAVVSKIASEYGNGQVHITTRQGFEILGINMEDMEEINKIIQPVIEKMNINQSEKNAGYPAAGTRNIAACIGNKVCPKAQYNTTEFAKRIEKAIFPNDLHFKVALTGCPNDCIKARMNDFGIIGMALPIYEKDRCVNCGACVKKCSKISVGALKTENNKVVRDKDKCIGCGECVLNCPTNAWTRDEKKYYRLAIMGRTGKKNPRLAEDFLLWVDEDSIIKIILNTYRYVEKYIDKDAPGGKEHIGYIIDRTGFMEFKKWALEGVELPEITKMYENIYWSGIKYL | not soluble
6 | MGYVPIKNDYNEAQNKDSQSFLIMGLDNTIERKLGTTRTDAMMVITVNNKTKKITYLSLPRDSFVQIDAKNYQGMQRIEAAYTYDGPTASVNTVEKLLNIPINHYVVFNFLSFIKLIDAVGGIDVNVKQAFDGVTKDGPGSIHFDAGKQHLDGTKALSYARERHSDNDIMRGFRQQEIIQAVEDKLKSGQSIMKIMDIIDSLNGNIQTDVDSNELTHLVKEGLTWTNYDKQQLSFDWRTFSNEGRSMVELYPDSIENVRHQLRVSLNLEKPDERDQDGYVFHTNGEFLYQSDYTVQDEAAEENEMTSINGNTYIGVPGNTQTGPLPSVKTENGFIKLEHHHHHH | soluble
7 | MGSDKIHHHHHHMMKKIEEARTFISERTNLSPDILIILGSGFGPFIEKVEDPVIIDYKDIPHFPQPTVEGHSGKLVFGRISDKPVMIMAGRFHLYEGHDPATVAFPVYLAKYVGVKGVVVTNAAGAINPEFKPGEIILVRDIINFMFRNPLRGPNDEKIGPRFPDMSSVVDPEWARKIQERLSLKEGVYIGVLGPSYETPAEIRVFEKLGADLVGMSTVPEVIAAKHCGLKVVVFSCVTNMAAGITHGRLSHEEVVRTTKMAQGKIEKALTTAVEVF | soluble
8 | SRDEIATTVFFVTRLVKKHDKLSKQQIEDFAEKLMTILFETYRSHWHSDCPSKGQAFRCIRINNNQNKDPILERACVESNVDFSHLGLPKEMTIWVDPFEVCCRYGEKNHPFTVASFKGRWEEWELYQQISYAVSRASSDVSSGTSCDEESCSKEPRVIPKVSNPKSIYQVKSVPVLFYTFFLSNSKKNALIMKTKKQKNMERTKL | soluble
9 | MLTEQEKDIIKQTVPLLKEKGTEITSIFYPKMFKAHPELLNMFNQTNQKRGMQSSALAQAVMAAAVNIDNLSVIKPVIMPVAYKHCALQVYAEHYPIVGKNLLKAIQDVTGLEENDPVIQAWAKAYGVIADVFIQIEKEIYDQMMWIGFKPFKITNIKQESEDIKSFTVETEEYDFSEFTPGQYITVDVSSDKLPYRAKRHYSIVSGEKNHLTFGVKRDVTTEHEGEVSTILHDEIKEGDMINLAAPVGGFVLENTTEPQLFLGSGIGVTPLVAMYEAASAKGLDTQMVQVAENEQHLPFKDNFNSIASHHDNAKLYTHLKDKQGYIGAEELQVFLANKPEIYICGGTKFLQSMIEALKSLNYDMDRVHYETFIPRLSVAV | not soluble
10 | MHRLRNLREDVSDGSLGHGGGGLMYDVVVVGAGPAGSMAAKTAAEQGLKVLLVEKRQEIGTPVRCAEGISRESIEKFFEVDKKWIAAEVTGAKIYAPNKTEIVMSEEMAGNEVGYVLERKIFDRHVARLAAKAGAEVYVKTAMVDFERKDGKVKVKLRRLGEDWEVETKILIGADGVESKIGRKAGIIKTLKLNEVESCAQYLMTGLDIDESYTYFYLGRELAPGGYAWIFPKGNGSANVGIGVLPKMAERTAKEYLDAFIEKEGIEGKIVEFVAGAVPVYGEIETAVADNIMLAGDAAYHADPITGGGIANALSAGYYAGKVAAEAVQKNDFSADFLRRYDELWKNDFGKKLRRNKKLQLKFIDMDDALLNKLAGAIAGKNLREMSVAAIVKELLKAHPKLLWDLKDLFLEHHHHHH | soluble
11 | MAHHHHHHMQPFQFVPQVDNKVNVVSMQPFQMYVPNHNMMVPQACPENIQQYHHQPIFFEPLPPIYVKNQLLPSPILVQMPTTVVVQNESQPAMVLSQPPSNIVVKNNPPTSVFVKQSNPNVVVKNEAPPNYVQSVEACQEGVVADMSRPMMTTLNKNIL | not soluble
12 | LRANKPVFKNAGATLHDIGDGIVNLEFHTKMNTLGGEVVDAINRSIGIAEKDFQGIVIGNDGANFSAGANLALVLMYAIEQEYDEIDFMIRAFQNTMMRARYSSIPVVVAPHNLTLGGGCEMTLHADHVQAFAETYIGLVEFGVGLIPAGGGTKEFTLRVSDSFEDGDIQVNNLKNMYMHIATAKVATSAEEARSMGILRKSDGITLNRSRLIADAKAAAISLAEAG | not soluble
13 | MGSDKIHHHHHHMSVLTVTGLSQRFLDKVLYQDASFQVNIEDHLGVIGQNGVGKSTLIKILTGAQTPDAGKIVWQKHLHVGYLDQYANLVPGQTVIEFLRTAFSDLYRKEAKMNQIYADYANHPDDDLLAKAGELQQELEAGDFYDLETTIQTVAEGLGITAMGMDHPVEALSGGQRSKLILAKLLLEKPDMLLLDEPTNYLDVSHIAWLTDWLQNFEGAFIVISHDFDFLENVTNAVLDIEFGQITKYTGTLKQAMRQKEADHETYLKAFAKQQETIKKTEAFIRKFKAGTRATMAKSREKQLARMDKLTPPGTRSKAHLAFPYAPVNRQILVDVNDLVVGYDKPLLQPMNFSVAKDQIIAFEGFNGVGKSTLLKTLLGLLPAISGNVEIADNVVFGYYEQELHWDQPKQSPVQYLEQRFPALTQKTVRQVLSRTALTSEEANNPLTMLSGGEQAKVKLADLMLQTTNILVMDEPTNHLDDDTKNALREGLQQYPGAVLLVSHEAGFYDSSWVDTVVNVEQLQVKA | not soluble
14 | GHMNAYLSDQPVRLSPLRDEQGNQPRFGLLLEPGRPGMHVGELPAQWLKGLARSHHLLLLRGFAAFADAESLTRYCHDFGEVMLWPFGAVLELVEQEGAEDHIFANNYVPLHWDGMYLETVPEFQVFHCVDAPGDSDGGRTTFSSTPAALQLADSSELELWRRASGRYQRSAAHYSSRSAAPIVERHPRREFPILRFCEPPVEGDASFINPSEFHYDGIAPEQRGELLASLRRCLYHPQAHYAHRWRSDDLVIADNLTLLHGREAFAHRAPRHLRRVHIHAEPALRNPHLQRD | soluble
